In patent US20240239878A1 (SHANGHAI QILU PHARMACEUTICAL RESEARCH AND DEVELOPMENT CENTRE, published 2024):
Substitutions are numbered along the chain they refer to. Like-named read-outs stand apart in the source and are kept apart here. Each block holds one binder with its values, some of them ahead of it.

Key:
[1] = target: T1, human DLL3 antigen protein (Kactus Biosystems, Cat. No. DLL-HM103) (human, UniProt Q9NYJ7 27-492); assay: affinity assay with human DLL3 antigen protein (kinetics; method not restated, Biacore as in Example 10 implied)
T1 sequence: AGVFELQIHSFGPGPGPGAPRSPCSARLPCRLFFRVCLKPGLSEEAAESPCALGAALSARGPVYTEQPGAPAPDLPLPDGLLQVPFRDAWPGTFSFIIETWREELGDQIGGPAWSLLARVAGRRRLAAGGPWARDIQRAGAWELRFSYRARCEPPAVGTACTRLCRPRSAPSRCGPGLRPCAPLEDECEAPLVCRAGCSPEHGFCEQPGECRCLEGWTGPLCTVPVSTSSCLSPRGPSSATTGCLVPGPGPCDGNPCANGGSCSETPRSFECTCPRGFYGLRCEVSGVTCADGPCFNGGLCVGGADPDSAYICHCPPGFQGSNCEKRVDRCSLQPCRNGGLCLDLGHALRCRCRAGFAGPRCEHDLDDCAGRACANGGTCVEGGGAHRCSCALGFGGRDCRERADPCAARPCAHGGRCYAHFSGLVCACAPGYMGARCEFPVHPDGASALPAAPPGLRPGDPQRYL

[2] = target: T2, human DLL3 on SHP-77 cells (human, UniProt Q9NYJ7 27-618); assay: flow cytometry, SHP-77 cells
T2 construct: also called DLL3-expressing cells (SHP-77)
T2 sequence: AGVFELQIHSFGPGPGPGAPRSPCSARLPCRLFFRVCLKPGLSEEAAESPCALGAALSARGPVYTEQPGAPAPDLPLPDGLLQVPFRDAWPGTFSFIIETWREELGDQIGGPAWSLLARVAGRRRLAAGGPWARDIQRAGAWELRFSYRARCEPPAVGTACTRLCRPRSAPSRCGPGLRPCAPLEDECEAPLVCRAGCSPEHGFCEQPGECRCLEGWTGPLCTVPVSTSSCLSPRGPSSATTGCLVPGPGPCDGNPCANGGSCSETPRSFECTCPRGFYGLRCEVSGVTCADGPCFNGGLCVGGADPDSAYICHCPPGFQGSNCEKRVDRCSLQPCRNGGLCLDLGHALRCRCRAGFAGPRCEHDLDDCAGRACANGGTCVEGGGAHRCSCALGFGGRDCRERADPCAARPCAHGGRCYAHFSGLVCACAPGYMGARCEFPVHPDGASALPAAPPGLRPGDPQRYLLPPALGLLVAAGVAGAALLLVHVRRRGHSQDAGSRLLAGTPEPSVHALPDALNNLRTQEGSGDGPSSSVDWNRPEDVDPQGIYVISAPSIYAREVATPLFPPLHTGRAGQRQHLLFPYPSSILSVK

[3] = target: T3, human DLL4 (Sino Biological, Cat. No. 10171-H08H) (human, UniProt Q9NR61 27-529); assay: ELISA, plate coated with human DLL4 at 1 ug/mL, OD 450nm
T3 construct: also called family protein DLL4
Description: (§1) The antigenic proteins human DLL1 (SinoBiological, cat. No. 11635-H08H) or human DLL4 (SinoBiological, cat. No. 10171-H08H) were dissolved in 1×PBS at a concentration of 1 μg/mL. […] The antigen was washed three times with PBST, 300 μL/well. The antigen was blocked with 1% BSA (in PBST), 200 µL/well, and incubated at 37° C. for 1.5 hours.
(§2) Antibodies to be tested were diluted with 1% BSA (in PBS) at a starting concentration of 100 nM, downwards by a 10-fold gradient for 7 concentrations. The plates were washed three times with PBST, 300 μL/well. The diluted antibody was added to an ELISA plate at 100 μL/well and incubated at room temperature for 2 hours. The antibodies were washed three times with PBST, 300 μL/well. The secondary antibodies (goat anti-human IgG Fc for DLL4 (HRP), 1:20000 dilution; HRP goat anti-mouse IgG (H+L) for DLL1, 1:10000 dilution) were diluted with 1% BSA in PBST. The diluted secondary antibodies were added to the ELISA plate at 100 μL/well and incubated at room temperature for 1 hour. The plates were washed 6 times with PBST, 300 μL/well. The developing solution (TMA and TMB 1:1 mixed) was prepared. The developing solution was added to the plate, 100 μL/well, and incubated in the dark for 5 min. 50 μL of ELISA stop solution was added to the plate and shaken well.

[4] = target: T4, human DLL1 (Sino Biological, Cat. No. 11635-H08H) (human, UniProt O00548 18-545); assay: ELISA, plate coated with human DLL1 at 1 ug/mL, OD 450nm
T4 construct: also called family protein DLL1
T4 sequence: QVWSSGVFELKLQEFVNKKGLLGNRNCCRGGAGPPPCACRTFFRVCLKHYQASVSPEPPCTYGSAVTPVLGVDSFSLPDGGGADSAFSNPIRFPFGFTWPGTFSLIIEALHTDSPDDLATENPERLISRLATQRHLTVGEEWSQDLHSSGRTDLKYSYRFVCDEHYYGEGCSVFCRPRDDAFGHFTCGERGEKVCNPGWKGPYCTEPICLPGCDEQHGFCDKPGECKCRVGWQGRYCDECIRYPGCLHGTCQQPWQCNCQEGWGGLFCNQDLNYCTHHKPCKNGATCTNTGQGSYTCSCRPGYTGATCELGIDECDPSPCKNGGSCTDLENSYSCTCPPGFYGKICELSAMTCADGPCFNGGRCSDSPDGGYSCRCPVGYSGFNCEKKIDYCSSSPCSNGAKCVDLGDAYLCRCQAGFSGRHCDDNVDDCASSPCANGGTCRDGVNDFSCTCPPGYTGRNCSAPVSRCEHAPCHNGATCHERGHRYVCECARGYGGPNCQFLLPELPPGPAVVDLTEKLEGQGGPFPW
Description: as §1, §2

[5] = target: T1, human DLL3 antigen protein (Kactus …); assay: SPR (Biacore 8K), antibody captured on anti-human Fc, DLL3 in solution
Description: The affinity and kinetic properties of the humanized anti-DLL3 antibody to human DLL3 were analyzed using a Biacore 8K instrument. CM5 chips were activated with EDC and NHS, followed by immobilization of anti-human Fc murine mAb and blocked with ethanolamine.
Human DLL3 was diluted two-fold serially to serial concentrations (100 nM-0.39 nM) and associated for 90 s and dissociated for 600 s at a flow rate of 50 μL/min.
After completion of each round of the experiment, the captured antibody was removed together with the antigen by washing with a 3M MgCl₂ solution at a flow rate of 30 μL/min for 30 s to complete the regeneration of the chip. The raw data were analyzed using Biacore Insight Evaluation Software (3.0.12.15655) software and fitted with a (1:1) Langmuir model with.

[6] = target: T2, human DLL3 on SHP-77 cells; assay: flow cytometry, SHP-77 cells; remark: listed apart in the source
How it was run: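 Trypsinised SHP-77 cells in 1% BSA/PBS were incubated with antibody (100 nM top, 10-fold steps, 7 concentrations) for 1 h at 4° C. Bound antibody was detected with goat anti-human IgG Fc-PE for 0.5 h at 4° C and read as PE mean fluorescence intensity. EC50 and Top MFI were derived from the curves.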

T3 sequence (Q9NR61 27-529 limits assumed): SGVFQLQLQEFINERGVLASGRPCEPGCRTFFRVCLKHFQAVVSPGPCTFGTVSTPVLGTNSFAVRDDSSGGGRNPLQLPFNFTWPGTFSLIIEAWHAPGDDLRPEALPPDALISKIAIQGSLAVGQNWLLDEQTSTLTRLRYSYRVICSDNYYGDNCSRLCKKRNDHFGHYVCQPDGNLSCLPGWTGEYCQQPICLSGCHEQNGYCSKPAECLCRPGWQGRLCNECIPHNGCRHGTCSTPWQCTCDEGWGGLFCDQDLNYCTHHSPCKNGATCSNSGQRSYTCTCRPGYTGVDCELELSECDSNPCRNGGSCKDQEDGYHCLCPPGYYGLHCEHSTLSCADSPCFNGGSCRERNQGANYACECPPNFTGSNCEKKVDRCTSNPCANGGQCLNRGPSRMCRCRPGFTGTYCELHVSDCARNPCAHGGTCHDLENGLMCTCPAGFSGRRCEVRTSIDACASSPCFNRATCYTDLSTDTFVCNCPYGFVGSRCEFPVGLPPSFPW

Kd [1]: 0.105 nM
koff [1]: 0.000135 s⁻¹
kon [1]: 1.29e+06 M⁻¹ s⁻¹
EC50 [2]: 0.104 nM
Top MFI [2]: 1270 MFI
B1: hDLL3-3-1-NA humanized antibody variant (antibody, V domains shown)
VH: EVQLVESGGGLVQPGGSLRLSCAASTYTISSGYMGWFRQAPGKEREGVAAIYIGGSTTLYADSVKGRFTISRDNSKNTLYLQMNSLRAEDTAVYYCAAQLRPNAAYHPLDGRKYNYWGQGTLVTVSS

Kd [1]: 5.02 nM
koff [1]: 0.00611 s⁻¹
kon [1]: 1.22e+06 M⁻¹ s⁻¹
EC50 [2]: 0.055 nM
Top MFI [2]: 1010 MFI
B2: hDLL3-3-1-QS humanized antibody variant (antibody, V domains shown)
VH: B1 VH with N103Q, A104S

binding result [3]: no binding (tested: 100 nM)
binding result [4]: no binding (tested: 100 nM)
Kd [5]: 0.246 nM
koff [5]: 5.78e-05 s⁻¹
kon [5]: 235000 M⁻¹ s⁻¹
EC50 [6]: 2.23 nM
Top MFI [6]: 1610 MFI
B3: H2-45E4D7 mouse hybridoma-derived humanized anti-DLL3 antibody (antibody, V domains shown)
VH: QVQLVQSGAEVKKPGASVKVSCKASGYTFTSHWITWVRQAPGQGLEWMGDIYPISGSTNNNEKFRNRVTMTRDTSTSTVYMELSSLRSEDTAVYYCAKIITVGGAYVMDYWGQGTLVTVSS
VL: EIVMTQSPATLSVSPGERATLSCRASQSVRNNLHWYQQKPGQAPRLLIKYVSQSISGIPARFSGSGSGTEFTLTISSLQSEDFAVYYCQQSNSWPLTFGGGTKLEIK
